Here are results for 17 molecules from publication PMC10240976 (Autophagy, 2022).

As a reminder, the Kd is the equilibrium constant for the complex coming apart.

Assay [1] deals with T1, mRFP-GABARAPL1 (UniProt Q9H0R8 1-117).
T1 construct: also called membrane-anchored GABARAPL1
Description: recruitment of LIR-GFP or gProbe. The arrangement: unit not given here. The note with it: partners not purified.

In assay [2] the target is T1, mRFP-GABARAPL1. Description: recruitment of LIR-GFP or gProbe to mRFP-mATG8-containing autophagic membranes (A:C ratio), microscopy; LIR(X)-GFP or gProbe-X co-expressed with one mRFP-mATG8 in HKO HeLa cells; 100 nM BafA1 in EBSS for 2 h; fixed in 4% PFA; autophagosome:cytosol GFP ratio normalized to GFP-expressing cells. The note with it: partners not purified.
For a further assay, the target named is LC3A (purified, for ITC). In words: ITC. Conditions: both partners purified.

A value given as a limit tells only on which side of the number the result lay.

T1 sequence (Q9H0R8 whole entry): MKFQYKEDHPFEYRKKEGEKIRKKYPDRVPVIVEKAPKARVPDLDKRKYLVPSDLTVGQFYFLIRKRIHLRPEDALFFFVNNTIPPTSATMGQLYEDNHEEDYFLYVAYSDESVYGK

B1: LIR(St)-GFP (domain or fragment)
chain: NSQDRVDHEEWEMVPRHSSWGDVGV
notes: also called STBD1 (St); source: HKO HeLa cells, transfected, in cells; not shown: GFP, C-terminal, kept
B1 returned an other with mRFP-GABARAPL1 [1] of 5.08.

B2: LIR(BNIP3)-GFP (domain or fragment)
chain: GMQEESLQGSWVELHFSNNGNGGSV
notes: source: HKO HeLa cells, transfected, in cells; not shown: GFP, C-terminal, kept
As for B2, in the assay with mRFP-GABARAPL1 [2], the “normalized A:C ratio” value is 1.45.

B3: LIR(ULK2)-GFP (domain or fragment)
chain: SKNSSCDTDDFVLVPHNISSDHSCD
notes: as for B2
For the molecule B3, the other with mRFP-GABARAPL1 [1] was determined as 2.5.

B4: LIR(ATG4C)-GFP (domain or fragment)
chain: KQLKRFSTEEFVLL
notes: as for B2
In the assay with mRFP-GABARAPL1 [1], B4 had an other of 2.93.

B5: LIR(JMY)-GFP (domain or fragment)
chain: FALEETLESDWVAVRPHVFDEREKH
notes: as for B2
In the case of B5, in the assay with mRFP-GABARAPL1 [1], the other was determined as 1.46.

B6: LIR(TP)-GFP (domain or fragment)
chain: FVSEEDEVDGWLIIDLPDSYAAPPS
notes: also called TP53INP2 (TP); source: HKO HeLa cells, transfected, in cells; not shown: GFP, C-terminal, kept
With B6, in the assay with mRFP-GABARAPL1 [1], the other is 5.

B7: LIR(ATG4D)-GFP (domain or fragment)
chain: LRAKRPSSEDFVFL
notes: as for B2
Consider B7, for which the other with mRFP-GABARAPL1 [1] was 2.65.

B8: LIR(ULK1)-GFP (domain or fragment)
chain: SKDSSCDTDDFVMVPAQFPGDLVAE
notes: as for B2
As for B8, the other in the assay with mRFP-GABARAPL1 [1] amounted to 1.58.

B9: LIR(ATG4A)-GFP (domain or fragment)
chain: QLEEFDLEEDFEILSV
notes: as for B2
B9 displayed an other with mRFP-GABARAPL1 [1] of 2.18.

B10: LIR(TP[T]) peptide (peptide)
peptide: DGTLIIDLPDSY
notes: also called TP53INP2 peptide; source: synthetic peptide (Cosmo Bio), purified by SEC
B10 came in with a Kd with LC3A (purified, for ITC) of more than 132 µM.

B11: LIR(WDFY3/ALFY)-GFP (domain or fragment)
chain: DQLSLDEKDGFIFVNYSEGQTRAHL
notes: as for B2
As to B11, the other in the assay with mRFP-GABARAPL1 [1] stood at 3.06.

B12: LIR(TBC1D25)-GFP (domain or fragment)
chain: PSEDSPLLEDWDIISPKDVIGSDVL
notes: as for B2
The molecule B12 registered an other with mRFP-GABARAPL1 [1] of 1.41.

B13: LIR(UBR4)-GFP (domain or fragment)
chain: QEQSEVDHGDFEMVSESMVLETAEN
notes: as for B2
In turn, B13 displayed an other with mRFP-GABARAPL1 [1] of 2.81.

B14: LIR(FUNDC1)-GFP (domain or fragment)
chain: PQDYESDDDSYEVLDLTEYARRHQW
notes: as for B2
Turning to B14, the “normalized A:C ratio” value in the assay with mRFP-GABARAPL1 [2] was 1.96.

B15: LIR(4B)-GFP (domain or fragment)
chain: ERFFDSEDEDFEILSL
notes: also called ATG4B (4B); source: HKO HeLa cells, transfected, in cells; not shown: GFP, C-terminal, kept
B15 came in with an other in the assay with mRFP-GABARAPL1 [1] of 2.19.

B16: LIR(TP53INP1)-GFP (domain or fragment)
chain: PEFNEKEDDEWILVDFIDTCTGFSA
notes: as for B2
Consider B16, for which the other with mRFP-GABARAPL1 [1] is 2.43.

B17: LIR(PLEKHM1)-GFP (domain or fragment)
chain: QKVRPQQEDEWVNVQYPDQPEEPPE
notes: as for B2
For the molecule B17, the other with mRFP-GABARAPL1 [1] was found to be 1.86.
